Holding throughout (assay): cell-based or functional assay
Test [1] deals with SARS-CoV-2 Omicron variant BA.2.75.2 spike protein (SARS-CoV-2).
The target of test [2] is SARS-CoV-2 Omicron variant BA.4/5 spike protein (SARS-CoV-2).
Test [3] addresses SARS-CoV-2 Omicron variant BQ.1.1 spike protein (SARS-CoV-2).
Test [4] has as its target SARS-CoV-2 spike protein, Omicron variant BA.2.75.2 (SARS-CoV-2).
Test [5] addresses SARS-CoV-2 spike protein, Omicron variant BA.4/5 (SARS-CoV-2).
For test [6], the target named is SARS-CoV-2 spike protein, Omicron variant BQ.1.1 (SARS-CoV-2).
The target in test [7] is SARS-CoV-2 spike (S) protein, Alpha variant (B.1.1.7) (SARS-CoV-2) (UniProt P0DTC2).
In test [8] the target is SARS-CoV-2 spike (S) protein, Omicron variant BA.1 (SARS-CoV-2) (UniProt P0DTC2).
Test [9] addresses SARS-CoV-2 spike (S) protein, Omicron variant BA.2 (SARS-CoV-2) (UniProt P0DTC2).
In test [10] the target is SARS-CoV-2 Omicron BA.4.6 spike protein (R346T, F486V) (SARS-CoV-2) (UniProt P0DTC2).
The target in test [11] is SARS-CoV-2 spike protein, Omicron sublineage BA.1.1 (R346K) (SARS-CoV-2) (UniProt P0DTC2).
The target of test [12] is SARS-CoV-2 spike protein, Omicron variant (B.1.1.529) (SARS-CoV-2) (UniProt P0DTC2).
Test [13] has as its target SARS-CoV-2 spike protein, Omicron sublineage BA.1.1 (R346K) (SARS-CoV-2) (UniProt P0DTC2). The source holds these as a separate data set.
For test [14], the target named is SARS-CoV-2 spike protein, Omicron sublineage BA.4.6 (R346T, F486V) (SARS-CoV-2) (UniProt P0DTC2).
For test [15], the target named is SARS-CoV-2 spike protein, Omicron sublineage BA.4.7 (R346S, F486V) (SARS-CoV-2) (UniProt P0DTC2).
Test [16] deals with SARS-CoV-2 spike protein, Omicron sublineage BF.7 (R346T, F486V) (SARS-CoV-2) (UniProt P0DTC2).
Test [17] addresses SARS-CoV-2 spike protein, Omicron sublineage BQ.1.1 (R346T, K444T, F486V) (SARS-CoV-2) (UniProt P0DTC2).
Test [18] deals with SARS-CoV-2 spike (S) protein, C.1.2 variant (SARS-CoV-2) (UniProt P0DTC2).
Test [19] concerns the target SARS-CoV-2 spike (S) protein, Iota variant (B.1.526) (SARS-CoV-2) (UniProt P0DTC2).
In test [20] the target is SARS-CoV-2 spike (S) protein, Lambda variant (C.37) (SARS-CoV-2) (UniProt P0DTC2).
Test [21] addresses SARS-CoV-2 spike (S) protein, Mu variant (B.1.621) (SARS-CoV-2) (UniProt P0DTC2).
Test [22] addresses SARS-CoV-2 spike (S) protein, Omicron variant BA.2.12.1 (SARS-CoV-2) (UniProt P0DTC2).
The target in test [23] is SARS-CoV-2 spike (S) protein, Omicron variant BA.4/5 (SARS-CoV-2) (UniProt P0DTC2).
Test [24] addresses SARS-CoV-2 spike (S) protein, Omicron variant BA1.1.529 (SARS-CoV-2) (UniProt P0DTC2).
For test [25], the target named is SARS-CoV-2 spike protein, Alpha variant (B.1.1.7) (SARS-CoV-2).
In test [26] the target is SARS-CoV-2 spike protein, Beta variant 1 (B.1.351.v1) (SARS-CoV-2).
Test [27] concerns the target SARS-CoV-2 spike protein, Delta variant (B.1.617.2) (SARS-CoV-2).
Test [28] has as its target SARS-CoV-2 spike protein, Gamma variant (P.1) (SARS-CoV-2).

Read-outs that look alike come from different tables or passages of the source.

A19-46 (antibody), sequence (VH): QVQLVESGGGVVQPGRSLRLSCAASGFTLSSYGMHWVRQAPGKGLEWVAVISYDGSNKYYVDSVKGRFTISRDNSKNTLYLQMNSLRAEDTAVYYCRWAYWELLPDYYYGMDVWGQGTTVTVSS
A19-46 (antibody), sequence (VL): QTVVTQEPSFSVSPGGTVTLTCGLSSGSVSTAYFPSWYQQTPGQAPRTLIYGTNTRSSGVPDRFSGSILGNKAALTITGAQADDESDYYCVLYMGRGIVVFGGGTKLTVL

Regarding A19-46 (antibody), the IC50, pseudovirus neutralization in [1] is over 10 µg/mL; in test [2], over 10 µg/mL; in test [3] it was 0.386 µg/mL; in [4], over 10 µg/mL; in test [5], over 10 µg/mL; in test [6], 0.386 µg/mL. Also, the IC80, pseudovirus neutralization was over 10 µg/mL in test [1]; over 10 µg/mL in test [2]; 1.11 µg/mL in [3]; over 10 µg/mL in test [4]; over 10 µg/mL in [5]; 1.11 µg/mL in test [6].
Take LY-CoV555 (antibody): the values for the pseudovirus neutralization IC50 in test [7], in test [8] and in test [9] were 0.0145 nM, over 67 nM and over 67 nM, respectively. The pseudovirus neutralization IC80 in test [7] was 0.0361 nM; in test [8], over 67 nM; in [9], over 67 nM.
Turning to bebtelovimab (antibody), the IC80, pseudovirus neutralization in test [10] came out at 1 nM; in test [11] it was 65.1 nM; in test [12], 15.6 nM; in test [13], 65.1 nM; in [14], 28.1 nM; in test [15], 22.4 nM. For the same substance, the IC80, pseudovirus neutralization in test [16] is 24.5 nM; in test [17], over 10000 nM. Moreover, the IC50, pseudovirus neutralization in [11] turned out to be 26.4 nM; in test [12] it was 0.32 nM; in test [13], 26.4 nM; in test [14], 11.5 nM; in test [15] it was 11.4 nM; in test [16], 8.51 nM. The substance further showed an IC50, pseudovirus neutralization in [17] of over 10000 nM.
As for A19-61.1 (antibody), the IC50, pseudovirus neutralization came to 540 nM in [10]; 0.175 nM in test [25]; 0.0686 nM in [26]; 0.209 nM in [27]; 0.135 nM in test [28]. Moreover, the IC80, pseudovirus neutralization was 2170 nM in [10]; 0.325 nM in test [25]; 0.113 nM in [26]; 0.292 nM in [27]; 0.288 nM in test [28]. The pseudovirus neutralization IC50 (nM (inferred)) in test [18] is 8.43; in test [19], 0.0418; in [20], 0.11; in test [21], 0.264; in test [8] it was over 66.7; in [9] it was 0.0607. For the same substance, the pseudovirus neutralization IC50 (nM (inferred)) in test [22] was 0.11; in test [23], 0.128; in test [24], over 66.7. Moreover, the pseudovirus neutralization IC80 (nM (inferred)) is 0.0836 in test [19]; 0.186 in test [20]; 0.43 in test [21]; over 66.7 in test [8]; 0.17 in [9]; 0.298 in [22]. The pseudovirus neutralization IC80 (nM (inferred)) in test [23] is 0.322; in test [24], over 66.7.
B1-182.1 (antibody): the pseudovirus neutralization IC50 (nM (inferred)) was 0.0549 in test [18]; 0.0639 in test [19]; 0.0049 in test [20]; 0.0695 in test [21]; 1.03 in test [8]; 2.12 in test [9]. The pseudovirus neutralization IC50 (nM (inferred)) is 0.739 in [22], over 66.7 in test [23] and 2.55 in test [24]. The pseudovirus neutralization IC80 (nM (inferred)) was 0.11 in [18]; 0.183 in test [19]; 0.015 in [20]; 0.219 in [21]; 4.44 in test [8]; 8.5 in [9]. For the same substance, the pseudovirus neutralization IC80 (nM (inferred)) was 5.92 in [22], over 66.7 in test [23] and 6.47 in test [24]. For the same substance, the IC50, pseudovirus neutralization is 0.0262 nM in [25]; 0.0357 nM in [26]; 0.0099 nM in test [27]; 0.0182 nM in test [28]; 213 nM in test [11]; 401 nM in test [12]. For the same substance, the IC80, pseudovirus neutralization in test [25] amounted to 0.0844 nM; in [26] it was 0.139 nM; in test [27], 0.0254 nM; in test [28], 0.0429 nM; in test [11] it was 1300 nM; in test [12], 1020 nM.
Regarding “MX501 (A19-46 × A23-58H/B1-182L/A19-61 × A23-58H/B1-182L)”, the IC50, pseudovirus neutralization in test [8] is 0.0285 nM; in [9] it was 0.0097 nM; in [22] it was 0.0405 nM; in test [13], 20.5 nM; in test [14], over 10000 nM; in test [15] it was over 10000 nM. Also, the IC50, pseudovirus neutralization in test [16] and in test [17] was over 10000 nM throughout. Moreover, the IC80, pseudovirus neutralization in test [8] was 0.0876 nM; in [9] it was 0.025 nM; in [22], 0.0927 nM; in test [13], 77.2 nM; in test [14], over 10000 nM; in [15] it was over 10000 nM. The IC80, pseudovirus neutralization in test [16] and in test [17] was over 10000 nM each time.
Regarding “MX500 (A19-46 × A23-58H/B1-182L/A23-58H/B1-182L × A19-61)”, the IC50, pseudovirus neutralization in test [8] is 0.0639 nM; in [9] it was 0.0151 nM; in test [22], 0.0655 nM; in test [13], 45.1 nM; in test [14], over 10000 nM; in [15], over 10000 nM. Further, the IC50, pseudovirus neutralization in test [16] and in test [17] was over 10000 nM each time. The IC80, pseudovirus neutralization in test [8] was 0.204 nM; in test [9] it was 0.0503 nM; in test [22] it was 0.145 nM; in test [13], 83.4 nM; in [14], over 10000 nM; in test [15] it was over 10000 nM. The IC80, pseudovirus neutralization in [16] and in test [17] was over 10000 nM throughout.

(Values after patent US20240109955A1.)
